# From patent publication US20210009686A1 (BEIJING XUANYI PHARMASCIENCES, published 2021)
# Numbering of substitutions follows the chain as printed.
# B1: hybridoma clone 2-D22-A (antibody, V domains shown)
# VH: EVQLVESGGGLVKPGGSRKLSCAASGFTFSDYGMHWVRQAPEKGLEWIAYISSGSSSIYYADTVKGRFTMSRDNAKKTLFLQTTSLRSEDTAMYYCARIARGNAMDYWGQGTSVTVTS
# VL: DIVMTQSPSSLTVTAGEKVTMSCKSSQSLLNSGNQRNYLAWYQQKPGQPPKLLIYWASTRESGVPDRFTGSGSGTDFTLTISSVQAEDLAVYYCQNDYSYPLTFGAGTKLELK
# B2: hybridoma clone 7-G17-A (antibody, V domains shown)
# VH: B1 VH with A24V, H35Y, I48V, S57T, K77N, T83M, T117S
# VL: B1 VL with A15P, L30F, S99F
# B3: hybridoma clone 6-M11-A (antibody, V domains shown)
# VH: EVQLVESGGGSVKPGGSRKLSCAASGFTFSDYGMHWVRQAPEKGLEWVAYISSGSNTFYYTDTVKGRFTISRDNAKNTLFLQMTGLRSEDTAMYYCARFTRGNALDYWGQGTSVTVSS
# VL: B1 VL with R36K, A40T, I54L, A90T, D97A
# B4: hybridoma clone 9-N14-A (antibody, V domains shown)
# VH: B1 VH with H35Y, I48L, S56N, S57N, M70I, K77N, T83M, T115I, T117S
# VL: B1 VL with R36K, A40T, S99I, E111G
# B5: hybridoma clone 1-H16-A (antibody, V domains shown)
# VH: B1 VH with H35Y, I48V, Y50F, S57T, Y60C, M70I, K77N, T83M, T117S
# VL: B1 VL with K18R, Q35L, R36K, A40T, S83T, S99F
# B6: hybridoma clone 10-P12-A (antibody, V domains shown)
# VH: EIQLQQSGAELVKPGTSVKISCKASGYSFTGYNMNWVKQSHGKSLEWIGNINPYYSNTNYNQRFKGKATLTVDKSSSTAYMQLNSLTSEDSAVYYCARHVRGNSFDYWGQGTTLTVSS
# VL: DIVMTQSPSSLTVTAGERVTVGCKSRQSLFNSENQKNYLSWYQQKPGQPPKLLLYWTSTRESGVPERFTGSGSGTDFTLTISSVQAEDLAVYYCQNNYIYPFTFGSGTKLEIK
# B7: chimeric Ab 1-B13-A (antibody, V domains shown)
# VH: QVQLQQSGAELARPGASVKLSCKASGYTFTVWSMSWVKQRTGQGLQWIGEIYPKSGNTHYNEKFKGKATLTADKSSSTVYMQLSSLTSEDSAVYFCARAYYGNSFAYWGQGTLVTVPA
# VL: B1 VL with S10P, V19A, A40T, T78S, Y98F, S99I, L102F, A106S, L112I
# B8: chimeric Ab 4-N1-A (antibody, V domains shown)
# VH: B3 VH with E6N, S11L, N56S, F58I, T61A, V64M, G85S, T100V, A104S, L105M
# VL: B1 VL with R36K, A40T, A90T, D97A
# B9: chimeric Ab 6-M11-A (antibody, V domains shown)
# VH: B3 VH
# VL: B1 VL with R36K, A40T, I54L, A90T, D97A
# B10: chimeric Ab 10-J10-B (antibody, V domains shown)
# VH: B7 VH with V31S, M34I, Q46E, K54R, G56D, T58I, P117S
# VL: B1 VL with S22T, S28I, R36K, A40T, T78S, V91I, S99Y, L102F, A106S, L112I
# notes: also called 10-110-B; 10-10-B
# B11: chimeric Ab 1-H16-A (antibody, V domains shown)
# VH: B1 VH with H35Y, I48V, Y50F, S57T, Y60C, M70I, K77N, T83M, T117S
# VL: B1 VL with K18R, Q35L, R36K, A40T, S83T, S99F
# B12: chimeric Ab 9-M7-A (antibody, V domains shown)
# VH: EVQLVESGGALVKPGGSLKLSCAASGFTFSNYAMSWIRQTPEKRLEWVATIIIGGTYTYYPDSVKGRFTISRDNAKNTLYLQMSSLRSEDTALYYCARQVYGNSFAYWGQGTLVTVSA
# VL: B1 VL with R36K, A40T, D97N, S99I, L102F, A106S, L112I
# B13: chimeric Ab 7-G17-A (antibody, V domains shown)
# VH: B1 VH with A24V, H35Y, I48V, S57T, K77N, T83M, T117S
# VL: B1 VL with A15P, L30F, S99F
# B14: chimeric Ab 2-D22-A (antibody, V domains shown)
# VH: B1 VH
# VL: B1 VL
# B15: chimeric Ab 9-A13-B (antibody, V domains shown)
# VH: EVQLVESGGGLVKPGGSRKLSCAASGFSFSDYGMHWVRQAPEKGLEWVAHISSGSSTIYYADTMKGRFTISRDNAKNTLFLQMTSLRSEDTAMYYCARFARGNTMDYWGQGTSVTVSS
# VL: B1 VL with R36K, A40T, A90T, D97G
# B16: chimeric Ab 9-N14-A (antibody, V domains shown)
# VH: B1 VH with H35Y, I48L, S56N, S57N, M70I, K77N, T83M, T115I, T117S
# VL: B1 VL with R36K, A40T, S99I, E111G
# B17: chimeric Ab 7-E20-A (antibody, V domains shown)
# VH: B15 VH with S28T, H50Y, Y59H, A61V, M105L
# VL: B1 VL with L30F, S32T, R36K, A40T, A90T, D97G
# B18: chimeric Ab 10-K12-A (antibody, V domains shown)
# VH: B15 VH with S28T, H35F, A49G, H50Y, T57N, M64V, F99I, T104A
# VL: B1 VL with R36K, A40T, V91I, S99F
# B19: chimeric Ab 9-C6-A (antibody, V domains shown)
# VH: B15 VH with S28T, H50Y, A100V, T104S
# VL: B1 VL with M21L, R36K, A40T, G47R, S83N, A90T, D97A
# B20: chimeric Ab 6-C5-A (antibody, V domains shown)
# VH: B15 VH with S28T, H50Y, A97T
# VL: B1 VL with A40T, Q44R, A90T, V91F, D97G
# B21: chimeric Ab 7-B15-A (antibody, V domains shown)
# VH: B15 VH with S28T, V48I, A100V, T104A, M105L
# VL: B1 VL with S22N, R36K, A40T, A90T, D97G
# B22: chimeric Ab 1-M5-A (antibody, V domains shown)
# VH: B12 VH with P14S, K19R, Y32N, L93F, T115S
# VL: B1 VL with R36K, A40T, D97N, S99F, L102F, A106S, L112I
# B23: chimeric Ab 9-B11-A (antibody, V domains shown)
# VH: B15 VH with S28T, H50Y, T57P, M64V, T104A
# VL: B1 VL with R36K, A40T, E61D, D97N, S99Y, K109N
# B24: chimeric Ab 7-A21-A (antibody, V domains shown)
# VH: B15 VH with S28T, H35Y, V48L, H50Y, S56N, M64V, F99I, T104A
# VL: B1 VL with R36K, A40T, S99I, E111G
# B25: chimeric Ab 5-J22-A (antibody, V domains shown)
# VH: B15 VH with S28T, S56N, T57I, Y59H, M64L
# VL: B1 VL with R36K, A40T, A90T, D97A, Y100F
# notes: also called 5-22-A
# B26: chimeric Ab 10-P12-A (antibody, V domains shown)
# VH: B6 VH
# VL: B6 VL
# Biological target: T1, claudin 18.1 (CLDN18.1) (human, UniProt P56856 1-261)
# T1 construct: also called HEK293-CLDN18.1
# T1 sequence (P56856 whole entry): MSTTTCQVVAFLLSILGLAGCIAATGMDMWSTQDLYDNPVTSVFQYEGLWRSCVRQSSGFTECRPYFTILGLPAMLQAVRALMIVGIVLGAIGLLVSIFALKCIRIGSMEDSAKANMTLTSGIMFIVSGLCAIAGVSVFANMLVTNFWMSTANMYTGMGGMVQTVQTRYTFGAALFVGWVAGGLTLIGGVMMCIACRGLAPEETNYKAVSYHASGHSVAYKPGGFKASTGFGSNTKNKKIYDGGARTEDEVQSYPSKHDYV
# Experiment: in-cell ELISA, hybridoma supernatant on HEK293-CLDN18.1 cells
# Method: (§1) In-cell ELISAs were performed as follows: 5×10³ HEK293-CLDN18.2 cells were seeded per well in a poly-L-lysine-coated 96-well plate. The plates were then incubated at 37° C. with 5% CO₂ for 2 days. Following incubation, culture media was removed from each well, and the HEK293-CLDN18.2 cells were blocked with 200 μl blocking buffer (3% BSA/PBS (pH 7.4)) per well for 1 hour at room temperature. Each hybridoma supernatant was incubated with cells at room temperature for 1 hour. Cells were gently washed 3 times with 200 μl PBS (pH 7.4) containing 1 mM Ca²⁺ and 0.5 mM Mg²⁺. Next, cells were incubated with 100 μl of HRP-conjugated goat anti-human IgG (H+L) antibody for 1 hour at room temperature. Following the incubation, the cells were washed three times with 200 μl PBS (pH 7.4) containing 1 mM Ca²⁺ and 0.5 mM Mg²⁺. 100 μl of 1-Step™ Ultra TMB-ELISA Substrate was added to each well, and the reactions were stopped by addition of 50 μl of stop solution. OD₄₅₀ was measured using CLARIOStar microplate reader. The in-cell ELISAs were repeated for each clone using HEK293-CLDN18.1 cells.
row,Binder,OD450/µg IgG
1,B1,2.22 OD450/µg IgG
2,B2,6.7 OD450/µg IgG
3,B3,1.55 OD450/µg IgG
4,B4,3.14 OD450/µg IgG
5,B5,1.05 OD450/µg IgG
6,B6,4.3 OD450/µg IgG

# Biological target: T2, claudin 18.2 (CLDN18.2) (human)
# T2 construct: also called Claudin 18 isotype 2; HEK293-CLDN18.2
# Experiment: FACS, hybridoma supernatant on HEK293-CLDN18.2;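 note: flow cytometry of hybridoma supernatants taken 10 days after fusion, applied to HEK293 cells stably expressing CLDN18.2, with MFI standing for mean fluorescence intensity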
# From the text: (§2) Ten days after fusion, hybridoma supernatants were screened by FACS against HEK293-CLDN18.2, HEK293-CLDN18.1 and HEK293.
row,Binder,MFI
1,B1,58300
2,B2,136000
3,B3,60500
4,B4,64000
5,B5,121000
6,B6,131000

# Biological target: T2, claudin 18.2 (CLDN18.2)
# Experiment: in-cell ELISA, HEK293-CLDN18.2 cells
# Method: as §1
# The in-cell ELISAs were performed as described above. […] Cells were washed, and analyzed by FACS.
row,Binder,EC50
1,B7,0.059 µg/mL
2,B8,0.059 µg/mL
3,B9,0.098 µg/mL
4,B10,0.062 µg/mL
5,B11,0.08 µg/mL
6,B12,0.154 µg/mL
7,B13,0.098 µg/mL
8,B14,0.065 µg/mL
9,B15,0.15 µg/mL
10,B16,0.218 µg/mL
11,B17,0.198 µg/mL
12,B18,0.05 µg/mL
13,B19,0.491 µg/mL
14,B20,0.058 µg/mL
15,B21,0.066 µg/mL
16,B22,0.042 µg/mL
17,B23,0.069 µg/mL
18,B24,0.23 µg/mL
19,B25,0.065 µg/mL
20,B26,0.106 µg/mL

# Biological target: T1, claudin 18.1 (CLDN18.1)
# Experiment: in-cell ELISA, HEK293-CLDN18.1 cells
# Method: as §1
row,Binder,binding result
1,B10,no binding (tested: 1 µg/ml)
2,B12,no binding (tested: 1 µg/ml)
3,B16,no binding (tested: 1 µg/ml)
4,B20,no binding (tested: 1 µg/ml)
5,B22,no binding (tested: 1 µg/ml)
6,B23,no binding (tested: 1 µg/ml)

# Biological target: T1, claudin 18.1 (CLDN18.1)
# Experiment: FACS, hybridoma supernatant on HEK293-CLDN18.1
# From the text: as §2
row,Binder,MFI
1,B1,6310
2,B2,12900
3,B3,8970
4,B4,10600
5,B5,28300
6,B6,20100

# Biological target: T2, claudin 18.2 (CLDN18.2)
# Experiment: in-cell ELISA, hybridoma supernatant on HEK293-CLDN18.2 cells
# Method: as §1
row,Binder,OD450/µg IgG
1,B1,16.8 OD450/µg IgG
2,B2,30.8 OD450/µg IgG
3,B3,11.4 OD450/µg IgG
4,B4,34.4 OD450/µg IgG
5,B5,14.2 OD450/µg IgG
6,B6,29.4 OD450/µg IgG

# Biological target: T2, claudin 18.2 (CLDN18.2)
# Experiment: FACS, HEK293-CLDN18.2 cells
# Method: The interaction of 20 purified chimeric antibodies with CLDN18.2 was assessed by in-cell ELISAs and FACS using HEK293-CLDN18.2 cells. […] The FACS assays were performed as follows: Serial dilutions for each antibody clone shown in Tables 7 and 8 were prepared and stained with HEK293-CLDN18.2 cells on ice for 30 min, with final antibody concentrations of 10 g/ml, 3 g/ml, 1 g/ml, 0.3 μg/ml, 0.1 μg/ml, 0.03 μg/ml, 0.01 μg/ml, and 0 μg/ml. […] Cells were washed, and analyzed by FACS.
row,Binder,EC50
1,B7,0.036 µg/mL
2,B8,0.029 µg/mL
3,B9,0.026 µg/mL
4,B10,0.141 µg/mL
5,B11,0.101 µg/mL
6,B12,0.095 µg/mL
7,B13,0.033 µg/mL
8,B14,0.051 µg/mL
9,B15,0.068 µg/mL
10,B16,0.075 µg/mL
11,B17,0.05 µg/mL
12,B18,0.075 µg/mL
13,B19,0.032 µg/mL
14,B20,0.044 µg/mL
15,B21,0.032 µg/mL
16,B22,0.044 µg/mL
17,B23,0.045 µg/mL
18,B24,0.134 µg/mL
19,B25,0.023 µg/mL
20,B26,0.018 µg/mL
